Experimental data from the nanobody polyreactivity screen of Harvey et al. (2022).

Test: yeast display, Sf9 membrane polyspecificity reagent, FACS + sequencing; frameworks hold sequencing errors
Procedure, shortened: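 After 36–48 hours of galactose induction, yeast (Saccharomyces cerevisiae BJ5465) displaying a synthetic nanobody library were stained at 4 °C for 1 hour with 10% biotinylated, detergent-solubilized Sf9 membrane reagent. Streptavidin microbeads enriched the stained cells before FACS sorting into low and high (top ~1%) gates on anti-HA and streptavidin fluorescence. Each clone's polyreactivity label reflects its gate of origin.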

| Sequence | polyreactivity (PSR sort gate) |
| --- | --- |
| QVQLVESGGGLVQAGGSLRLRCAAAGSIFKLNAMGWYRQAPGKERELVAVIYKSAGRTYYADSVKGRFTISRDNAKNTVYLQMNSLKTEDTAVYYCNAVSKLAVNLDYWGQGTQVTVSS | high polyreactivity |
| QVQLVESGGGLVQAGGSLRLRCAASGFIFAWDAMGWYRQAPGKERELVATISGSGGRTYYADSVKGRFPISRDNAKNTVYLQMISLKPEETAVYYCATRAQGTSWYRTSKYDYWGQGTQVIVSS | high polyreactivity |
| QVQLVESGGGLVQAGGSLRLRCAASGFIFIFNAMGWYRQAPGKERELVAAIDTSDDSTYYADSVKGRFTISRDNAKNTVYLQMNSLKPEDTAVYYCAAEELSNYEYWGQGTQVTVSS | low polyreactivity |
| QVQLVESGGGLVQAGGSLRLRCAASGFIFPQYAMGWYRQAPGKEREKVAAISWSGTRTYYADSVKGRFTISRDNAKNTVYLQMNSLKPEDTADYYCAARIDRQYRWTGFGYWGQGTQVTVSS | high polyreactivity |
| QVQLVESGGGLVQAGGSLRLRCAASGFTFDLYAMGWYRQAPGKERELVAAISWSGGSTRYADSVKGRFTISRDNAKNTVYLQMNSLKPEDTAVYYCAKPVLVGLGSRYDYWGQGTQVTVSS | high polyreactivity |
| QVQLVESGGGLVQAGGSLRLRCAASGFTFYRKAMGWYRHAHGKERELVAAITRGGSTTYADSVKGRFTISRDNAKNTVYLQMNSLKPEDTAVYYCAVPQYLYLQAGHGYRYYYWGQGSQVTVSS | high polyreactivity |
| QVQLVESGGGLVQAGGSLRLRCAASGGIFGYYAMGLYRQAPGKERDFVAAITLSGGRTYYADSVKGRFTISRDNAKNTVYLQMNSLKPEDTAVYYCAAKGTRRGKERNYWGQGTQVTLSS | high polyreactivity |
| QVQLVESGGGLVQAGGSLRLRCAASGGTFRYNAMGWYRQAPGKERELVAAISSSGGSTYYADSVKGRFTISRDNAKNTVYLQMNSLKPEDTAVYYCAAKRRRYVELDYWGQGTQVTVSS | high polyreactivity |
| QVQLVESGGGLVQAGGSLRLRCAASGITLAGYVMGWYRQAPGKERELVADISSSGDSTYYADSVKGRFTISRDNAKNTVYLQMNSLKPEDTAVYYCNADQVWWSFDRVLVGYEYWGQGSQVTVSS | low polyreactivity |
| QVQLVESGGGLVQAGGSLRLRCAASGLIFITYAMGRYRQAPGKERELVATITLRGGSTYYADSVKGRFTISRDNAKNTVYLQMNSLKPEDTAVYYCNADSIYYGYDYWGQGTQVTVSS | low polyreactivity |
| QVQLVESGGGLVQAGGSLRLRCAASGLIFPYYAMGWYRQAPGKERELVAGITSDGSTNYADSVKGRFTLSRDNAKNTVYLQMNSLKPEDTAVYYCNARGVYFWWRLDYWGQGTQVTVSS | low polyreactivity |
| QVQLVESGGGLVQAGGSLRLRCAASGRIFAPYAMGRYRQAPWKERELVAAIDGSGGSTYYADSVKGRFTISRDNAKNTVYLQMNSLKPEDTAVYYCANRGYYRSQRWYGYWGQGTQVTVSS | high polyreactivity |
| QVQLVESGGGLVQAGGSLRLRCAASGRIFKSYAMGWYRQAPGKERELVAAINWSGGSTYYADSVKGRFTISRDNAKNTVYLQMNSLKPEDTAVYYCNALYAVRSYDSWGQGTQVTVSS | high polyreactivity |
| QVQLVESGGGLVQAGGSLRLRCAASGRIFREYAMGWYRQAPGKERELVAAITASGGGTYYADSVKGRFTISRDNAKNTVYLQMNSLKPEDTAVYYCAARYSSRTRNDYWGQGTQVTVSS | low polyreactivity |
| QVQLVESGGGLVQAGGSLRLRCAASGRIFTRNDIGWYRQAPGKERQLVAAISHSGGSTYADSVKGSFTISRDNAKNTVFLQMNRLKPEDTEVYYCAADSPYGYYEGDYWGQGTQVTVSS | low polyreactivity |
| QVQLVESGGGLVQAGGSLRLRCAASGRIFTTYAMVWYRQAPGKERELVADITTGGGTYYADSVKGRFTISRDNAKNTVYLQMNSLKPEDTAVYYCNADYSADYYWYYYWGQGTQVTVSS | low polyreactivity |
| QVQLVESGGGLVQAGGSLRLRCAASGRIVYWYAMGWYIQAPGKERELVATINQSGSSTYYADSVKGRFTISRDNAKNTVYLQMNSLKPEDTAVYYCARARSHYAYYWWNAGTGLDYWGQGTQVTVSS | high polyreactivity |
| QVQLVESGGGLVQAGGSLRLRCAASGRTFAINALGWYRQAPGKEREDVASITTSGGRTYYADSVKGRFTISRDNAKNTVYLQMNSLKPEDTAVYYCNAGSYVGSWRFPYYYWGQGTQVTVSS | high polyreactivity |
| QVQLVESGGGLVQAGGSLRLRCAASGRTFKRKAMGWYRQAPGKEREFVAVITGSGGSTYYADSVKGRFTISRDNAKNTVYLQMNSLKPEDTAVYYCAAALGLRSTSWGRRGGGGVYWGQGTQVTVSS | high polyreactivity |
| QVQLVESGGGLVQAGGSLRLRCAASGRTFKVYAMGWYRQAPGKERELVAAISYSGAGTRYADSVKGRFTISRDNAKNTVYLQMNSLKPEDTAVYYCNTDAWARVKRYEYWGQGTQVTVSS | low polyreactivity |
| QVQLVESGGGLVQAGGSLRLRCAASGRTFSGYAMGWYRQAPGKERELVAAITSGGNTYYADSVKGRFTISRDNAKNTVYLQMNSLKPEDTAVYYCAVVDYLWLLQLWLSDYWGQGTQVTVSS | low polyreactivity |
| QVQLVESGGGLVQAGGSLRLRCAASGRTFYSHTMGWYRQAPGKERELVAAIDWSGGRTYYADSVKGRFTISRDNAKNTVYLQMNSLKPEDTAVDYCNTVGYTRRLRSGGYWGQGTQVTVSS | high polyreactivity |
